Results as given in patent publication US20040138119A1 (BURNHAM INSTITUTE, published 2004).

B1: GST-CD40 (cytosolic domain) control protein (other, UniProt P25942 216-277, looked up, not shown: a dimerising Fc or GST)
chain: KKVAKKPTNKAPHPKQEPQEINFPDDLPGSNTAAPVQETLHGCQPVTQEDGKESRISVQERQ
notes: domain: cytosolic domain
B2: His6-pro-Caspase-9 (enzyme)
chain: HHHHHHMDEADRRLLRRCRLRLVEELQVDQLWDALLSRELFRPHMIEDIQRAGSGSRRDQARQLIIDLETRGSQALPLFISCLEDTGQDMLASFLRTNRQAAKLSKPTLENLTPVVLRPEIRKPEVLRPETPRPVDIGSGGFGDVGALESLRGNADLAYILSMEPCGHCLIINNVNFCRESGLRTRTGSNIDCEKLRRRFSSLHFMVEVKGDLTAKKMVLALLELAQQDHGALDCCVVVILSHGCQASHLQFPGAVYGTDGCPVSVEKIVNIFNGTSCPSLGGKPKLFFIQACGGEQKDHGFEVASTSPEDESPGSNPEPDATPFQEGLRTFDQLDAISSLPTPSDIFVSYSTFPGFVSWRDPKSGSWYVETLDDIFEQWAHSEDLQSLLLRVANAVSVKGIYKQMPGCFNFLRKKLFFKTS
notes: also called recombinant pro-Caspase-9
B3: active His6-Caspase-9 (lacking CARD domain) (enzyme)
chain: HHHHHHVGALESLRGNADLAYILSMEPCGHCLIINNVNFCRESGLRTRTGSNIDCEKLRRRFSSLHFMVEVKGDLTAKKMVLALLELAQQDHGALDCCVVVILSHGCQASHLQFPGAVYGTDGCPVSVEKIVNIFNGTSCPSLGGKPKLFFIQACGGEQKDHGFEVASTSPEDESPGSNPEPDATPFQEGLRTFDQLDAISSLPTPSDIFVSYSTFPGFVSWRDPKSGSWYVETLDDIFEQWAHSEDLQSLLLRVANAVSVKGIYKQMPGCFNFLRKKLFFKTS
notes: also called active Caspase-9
B4: His6-pro-Caspase-3 (enzyme)
chain: HHHHHHMENTENSVDSKSIKNLEPKIIHGSESMDSGISLDNSYKMDYPEMGLCIIINNKNFHKSTGMTSRSGTDVDAANLRETFRNLKYEVRNKNDLTREEIVELMRDVSKEDHSKRSSFVCVLLSHGEEGIIFGTNGPVDLKKITNFFRGDRCRSLTGKPKLFIIQACRGTELDCGIETDSGVDDDMACHKIPVEADFLYAYSTAPGYYSWRNSKDGSWFIQSLCAMLKQYADKLEFMHILTRVNRKVATEFESFSFDATFHAKKQIPCIVSMLTKELYFYH

Legend:
[1] = molecular target: B2; experiment: GST pull-down in the presence of Survivin, anti-Caspase-9 immunoblot
[2] = molecular target: T1, GST-HBXIP (human, UniProt O43504 1-91); experiment: GST pull-down, anti-Caspase-9 immunoblot
[3] = molecular target: T1, GST-HBXIP; experiment: GST pull-down, anti-Caspase-3 immunoblot
[4] = molecular target: HBXIP/Survivin complex (GST-HBXIP with purified untagged Survivin) (human, UniProt O43504 1-91; O15392 1-142); experiment: GST pull-down, anti-Caspase-3 immunoblot

Binder: B1
- binding result [1]: no binding

Binder: B2
- binding result [2]: no binding

Binder: B3
- binding result [2]: no binding

Binder: B4
- binding result [3]: no binding
- binding result [4]: no binding
